In patent publication US20170298121A1 (GlaxoSmithKline, published 2017):
Numbering of substitutions follows the chain as printed. Values belong to the binder of their own block, whether it stands above or below them.

Molecular target: T1, Rat Serum Albumin (rat, UniProt P02770 25-608)
T1 construct: Bought purified serum albumin; coupled to CM5 chips for BiaCore; also called RSA; rat SA
Experiment: SPR (BiaCore)

T1 sequence (P02770 25-608 limits assumed): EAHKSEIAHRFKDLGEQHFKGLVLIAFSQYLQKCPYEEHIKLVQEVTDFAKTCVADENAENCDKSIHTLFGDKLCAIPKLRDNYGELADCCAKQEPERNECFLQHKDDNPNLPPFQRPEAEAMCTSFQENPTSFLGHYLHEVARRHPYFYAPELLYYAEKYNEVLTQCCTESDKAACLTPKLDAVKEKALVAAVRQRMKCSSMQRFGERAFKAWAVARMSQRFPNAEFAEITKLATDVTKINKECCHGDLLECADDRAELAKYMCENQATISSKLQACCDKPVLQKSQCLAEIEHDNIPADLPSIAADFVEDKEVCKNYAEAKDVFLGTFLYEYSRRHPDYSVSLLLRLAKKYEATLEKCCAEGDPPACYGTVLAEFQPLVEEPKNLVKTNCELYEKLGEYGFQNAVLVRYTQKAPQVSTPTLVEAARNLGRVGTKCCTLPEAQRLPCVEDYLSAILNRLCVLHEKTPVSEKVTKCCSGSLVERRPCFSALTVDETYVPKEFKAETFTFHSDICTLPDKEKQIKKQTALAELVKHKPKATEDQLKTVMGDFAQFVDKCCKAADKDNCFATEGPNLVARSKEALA

fold decrease in affinity against the unfused ALBUDAB: 2 fold
B1: DOM7h-11-12/DOM1m-21-23 fusion DMS number 5516 (other)
chain: EVQLLESGGGLVQPGGSLRLSCAASGFTFNRYSMGWLRQAPGKGLEWVSRIDSYGRGTYYEDPVKGRFSISRDNSKNTLYLQMNSLRAEDTAVYYCAKISQFGSNAFDYWGQGTQVTVSSASTSGPSDIQMTQSPSSLSASVGDRVTITCRASRPIGTMLSWYQQKPGKAPKLLILFGSRLQSGVPSRFSGSGSGTDFTLTISSLQPEDFATYYCAQAGTHPTTFGQGTKVEIKRAAAEQKLISEEDLN
notes: DOM1m-21-23 - ASTSGPS - DOM7h-11-12 - myc tag; also called DMS5516

fold decrease in affinity against the unfused ALBUDAB: 2 fold
B2: DOM7h-11-15/DOM1m-21-23 fusion DMS number 5517 (other)
chain: B1 chain with F177A, G178F
notes: DOM1m-21-23 - ASTSGPS - DOM7h-11-15 - myc tag; also called DMS5517; DOM1m21-23-DOM7h11-15
